Measurements from patent US20120039878A1.

Key:
[1] = biological target: the 3 mAbs (2A4, 8G9 and 7D8) as a group; assay: Competition ELISA; told for the three mAbs together
[2] = biological target: murine monoclonal antibody 2A4 (ATCC Accession Number PTA-9662); assay: Competition ELISA; human AA amyloid in solution competing with adsorbed mouse AA (AEF) for mAb 2A4
[3] = biological target: murine monoclonal antibody 7D8 (ATCC Accession Number PTA-9468); assay: Competition ELISA; human AA amyloid in solution competing with adsorbed mouse AA (AEF) for mAb 7D8
Chain of murine monoclonal antibody 7D8 (ATCC Accession Number PTA-9468) (VL, as listed by the source, chain 1 of 2): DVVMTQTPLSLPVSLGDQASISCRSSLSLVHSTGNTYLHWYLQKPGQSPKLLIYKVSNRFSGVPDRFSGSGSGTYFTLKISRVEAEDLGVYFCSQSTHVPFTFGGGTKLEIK
Chain of murine monoclonal antibody 7D8 (ATCC Accession Number PTA-9468) (VH, as listed by the source, chain 2 of 2): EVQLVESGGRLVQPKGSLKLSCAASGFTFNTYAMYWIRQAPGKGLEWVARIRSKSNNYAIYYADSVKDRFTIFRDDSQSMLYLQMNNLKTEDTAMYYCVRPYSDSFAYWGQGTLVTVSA

[4] = biological target: murine monoclonal antibody 8G9; assay: Competition ELISA; human AA amyloid in solution competing with adsorbed mouse AA (AEF) for mAb 8G9
Chain of murine monoclonal antibody 8G9 (VL, as listed by the source, chain 1 of 2): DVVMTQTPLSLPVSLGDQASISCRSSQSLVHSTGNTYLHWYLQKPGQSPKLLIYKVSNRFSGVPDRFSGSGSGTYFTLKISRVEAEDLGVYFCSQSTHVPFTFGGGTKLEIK
Chain of murine monoclonal antibody 8G9 (VH, as listed by the source, chain 2 of 2): as the sequence (VH, as listed by the source, chain 2 of 2) above

Chain of murine monoclonal antibody 2A4 (ATCC Accession Number PTA-9662) (VH, as listed by the source, chain 2 of 2): as above

fold of IC50 against murine AEF in solution [1]: 6 to 44 fold | IC50 [2]: > 212 µg/mL | IC50 [3]: > 881 µg/mL | IC50 [4]: > 120 µg/mL
B1: human AA amyloid (human renal AA amyloid extract; AA deposits in human tissue) (protein, UniProt P0DJI8 19-94, looked up)
Amyloid protein A: RSFFSFLGEAFDGARDMWRAYSDMREANYIGSDKYFHARGNYDAAKRGPGGAWAAEVITDARENIQRFFGHGAEDS
modifications: Amyloid protein A amyloid fibrils
